This test deals with CHIKV VLP. As to the kind of experiment: SPR (Biacore T100), VLP captured by mouse anti-CHIKV mAbs, Fab injected. (Surface plasmon resonance follows binding to a sensor surface in real time, without labels.)

B1: 4J21 Fab (Fab, V domains shown)
VH: QVQLVQSGSELKKPGASVKVSCKASGYSFTSYSINWVRQAPGQGPEWMGWIDTNTGNPTYAQDFAGRFVFSLDTSVTTAYLQISSLKAGDTAVYYCATYYVDLWGSYRQDYYGMDVWGHGTLVTVSS
VL: QSVVTQPPSVSGTPGQGVTISCSGGSSNIGSNPVNWYQMVPGTAPKLLLYTNNQRPSGVPDRFSGSKSGTSASLAINGLQSEDEADYYCAVWDDSLSGRWVFGGGTKLTVL
A word on the Kd: it is the concentration at which binding is half-saturated. High values mean a looser complex, low ones a tighter complex. Broadly, the koff is the rate constant with which the complex falls apart. The kon is the rate constant with which the complex forms. B1 gave a Kd of 9 nM, a koff of 0.00142 s⁻¹, a kon of 158000 M⁻¹ s⁻¹ and a t1/2 of 8 min.

B2: 3E23 Fab (Fab, V domains shown)
VH: QVQLVQSGPGLVKPSDTLSLTCSVSSDALRSRSYYWGWVRQPPGKGLEWIGTVSYSGGTYYNPSLQSRVTVSVDTSKNHFSLRLNSVTAADAAVYYCARSYFYDGSGYYYLSYFDSWGQGTLVTVSS
VL: QAVVTQEPSLTVSPGGTVTLTCASSTGAVTSGHYPNWFQQKPGQPPRALIYSTDNKHSWTPARFSGSLLGVKAALTLSDVQPEDEADYYCLLHFGGVVVFGGGTKLTVL
On to B2, for which the Kd was found to be 19.6 nM, the koff is 0.000393 s⁻¹, the kon turned out to be 20300 M⁻¹ s⁻¹ and the t1/2 came out at 29 min.

The values are drawn from patent US20180079802A1.
